The target of data set [1] is T1, SCAF8-CID (human, UniProt Q9UPN6 1-139).
T1 sequence: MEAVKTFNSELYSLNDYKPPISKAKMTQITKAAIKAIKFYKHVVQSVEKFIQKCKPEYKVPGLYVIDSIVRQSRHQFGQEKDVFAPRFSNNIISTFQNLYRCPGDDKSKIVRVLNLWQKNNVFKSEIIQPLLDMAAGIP
The experiment in a line: competition FP.

For data set [2], the target named is T2, SCAF4-CID (human, UniProt O95104 1-139).
T2 sequence: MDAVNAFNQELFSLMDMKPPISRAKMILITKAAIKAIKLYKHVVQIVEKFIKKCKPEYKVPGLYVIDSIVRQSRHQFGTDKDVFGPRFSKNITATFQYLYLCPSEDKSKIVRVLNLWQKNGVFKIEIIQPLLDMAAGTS
Description: competition FP.

For data set [3], the target named is T1, SCAF8-CID. The experiment in a line: SPR.
Data set [4] has as its target T2, SCAF4-CID. Description: SPR. In general terms: In SPR one partner is held on a chip, and binding of the other changes the refractive index at the surface.
The target in data set [5] is T3, WDR5 (human, UniProt P61964 1-334). Description: competition FP.
Data set [6] concerns the target T3, WDR5. Description: SPR.
In data set [7] the target is WDR5 L240K (human, UniProt P61964 1-334, L240K). Description: fluorescence polarization.
The target of data set [8] is T3, WDR5. Description: fluorescence polarization.
The target of data set [9] is T2, SCAF4-CID. Description: competition FP. The source holds these as a separate data set.
Data set [10] concerns the target T2, SCAF4-CID. Description: fluorescence polarization. For orientation: Fluorescence polarisation rises when a labelled molecule tumbles more slowly, as on binding a larger partner.

Like-named read-outs stand apart in the source and are kept apart here.

CAGGTGGGTTC (ssDNA) [SRiApt-2 (F7_11-nt_B)]: the half-maximal inhibitory concentration (IC50) (commonly the concentration needed to halve the response being measured) in data set [1] stood at 2690 ± 1430 nM; in [2] it was 400 ± 143 nM. In addition, in data set [3], the equilibrium dissociation constant (Kd) – broadly, a measure of binding affinity in units of concentration – turned out to be 90.5 ± 25.8 nM.
In the case of TTAAAGGGGTGGGGAGTCAT (ssDNA) [SRiApt-3], the IC50 in data set [1] was 291 ± 19.7 nM; in data set [2] it was 285 ± 26.6 nM. The molecule further came in with a Kd in data set [4] of 22.7 ± 1 nM.
Molecule GGTGGGGA (ssDNA) [F1_8-nt] gave a concentration for half-maximal inhibition (IC50) in data set [2] of 554 ± 106 nM. This molecule returned an equilibrium dissociation constant (Kd) in data set [4] of 88.6 ± 15.1 nM.
In data set [1], GGGGTGGGGAG (ssDNA) [SRiApt-1 (F3_11-nt)] came in with a half-maximal inhibitory concentration (IC50) of 1500 ± 690 nM. Besides, the Kd worked out at 56.3 ± 7.42 nM in [3] and 58.4 ± 5.8 nM in data set [4].
AGGTGGGT (ssDNA) [B2_8-nt]: the half-maximal inhibitory concentration (IC50) in data set [2] was found to be 1040 ± 419 nM. Also, binding in data set [4] was put at a Kd of 297 ± 48.1 nM.
GGACC (ssDNA) [WDR5 lead sequence (H4)] returned an IC50 in data set [5] of 8500 ± 4250 nM.
With GGGGGCTGGACCCCTCAACT (structured_DNA) [WMiApt-1], the values for the Kd in data set [6] and in data set [8] were 138 ± 86.7 nM and 797 ± 95.2 nM, respectively. This molecule yielded an IC50 in data set [5] of 431 ± 134 nM. The binding result in data set [7] is “binds”.
Consider GTGGG (ssDNA) [SCAF4_LS (D2_5-nt)], for which the figures for the 50% inhibitory concentration (IC50) in [9] and in [1] were 2750 ± 682 nM and 1960 ± 240 nM, respectively. Besides, the values for the dissociation constant (Kd) in data set [3], in data set [4] and in data set [10] were 76.4 ± 7.33 nM, 140 ± 40.1 nM and 189 ± 40.1 nM, respectively.
TGGTGGGA (ssDNA) [D1_8-nt] registered an IC50 in data set [2] of 1270 ± 864 nM.

Source of the values: PMC11310338.
